Measured values published in publication PMC5887309.

Molecular target: DNMT3AC R882H (human, UniProt Q9Y6K1 612-912, R882H)
Experiment: fluorescence anisotropy

Sequence of DNMT3AC R882H (Q9Y6K1 612-912 R882H): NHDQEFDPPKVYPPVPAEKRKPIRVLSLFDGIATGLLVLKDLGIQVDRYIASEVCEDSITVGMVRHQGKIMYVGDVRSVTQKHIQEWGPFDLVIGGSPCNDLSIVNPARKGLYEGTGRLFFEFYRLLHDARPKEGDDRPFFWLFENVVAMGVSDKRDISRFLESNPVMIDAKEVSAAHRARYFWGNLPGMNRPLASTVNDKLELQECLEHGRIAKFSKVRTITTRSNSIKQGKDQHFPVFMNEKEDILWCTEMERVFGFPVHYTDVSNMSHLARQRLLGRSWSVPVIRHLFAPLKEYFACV

B1: Cy5-labeled 29mer with two CpG sites (dsDNA)
DNA 1: ACTTGCAACGGTCCTAACCGTCACCTCTT
DNA 2: AAGAGGTGACGGTTAGGACCGTTGCAAGT
For B1, the Kd was 209 ± 19 nM.
